How the values were obtained:
PKC = experiment: In vitro phosphorylation by PKC (average of isoforms alpha, epsilon, delta, theta); assay type: biochemical; settings: for PKC average: average of PKC-alpha, -epsilon, -theta, normalized to best substrate; for average (phosphorylation by PKC-theta, -delta, -epsilon, -alpha): average over PKC-theta, -epsilon and -alpha at 10 and 1 uM peptide, relative to best substrate
Method: (§1) The conditions of the kinase assay and the amount of active kinase used varied with the kinase and with the accuracy needed. For a typical experiment, 5-20 ng of kinase was used per well and each peptide pool was assayed in duplicate wells. Note that the absolute amount of kinase used was not usually a critical parameter, because the desired information related to specificity of the kinase not its absolute activity, and robustness of the assay depends on comparisons of the same amount of kinase on different peptides. The combination of kinase concentration and assay duration was modified to assure that the stoichiometry of peptide phosphorylation never exceeded 5%. The choice of kinase buffer depended on the kinase being analyzed. For studies of PKC, 100 mM HEPES, 0.05% Triton-X100, 1 mM CaCl2, 20 mM MgCl2, 0.2 mg/ml phosphatidyl serine (Avanti Polar Lipids), PMA 100 ng/ml was typically used. The lipid stock was prepared by transferring 3 mg phosphatidyl serine into iced mixture of 450 μl water plus 50 μl of 10% Triton-X100, sonicating 10 times on ice for 1 sec each.
(§2) The kinase reaction mixture was assembled by sequential addition to a tube held on ice of: 5 μl peptide (100 μM for final concentration of 10 μM), 15 μl of kinase (typically 5 ng/well, in appropriate kinase buffer), 30 μl of ATP (1 uCi/well of ^32P-gamma ATP in a stock of 167 μM cold ATP in the kinase buffer; for final concentration for 100 μM ATP). The mixture was rapidly warmed to desired reaction temperature (30° C. for PKC) and incubated for the desired duration (usually 10 minutes). The kinase assay was terminated by transfer to 4° C. water batch, and rapid addition of an equal volume (50 μl) of stop solution [0.1M ATP+0.1M EDTA in water, pH 8].
The peptides were then captured from the reaction mixture by transfer to a Reacti-Bind Streptavidin High Binding Capacity Coated Plates (HBC) (Pierce Biotechnology) as follows. The HBC plates were pre-rinsed three times with PBS/Tween PBS/Tween20 0.05% (PBS/Tween). Part of all of the reaction mixture was then transferred wells of a HBC plate pre-filled with 90 μl of phosphate-buffered saline (PBS); typically each aliquots of each phosphorylation reaction were transferred to duplicate HBC plates to assure accuracy by additional replication
For kinase assays done at the standard peptide concentration of 10 μM, the peptide concentration in the reaction mixture becomes 5 μM after addition of the stop solution; consequently 10 μl of the reaction (50 pMoles of peptide) was transferred to the HBC plate. More generally, the amount of reaction mixture transferred was estimated to be about 50 pMoles of peptide. […] The HBC plates were incubated for 0.5 to 1.5 hr at room temperature for complete binding of biotinylated peptides to plate-bound streptavidin. The HBC plates were then washed extensively with PBS/Tween. Five washes were done routinely and additional wash steps were added if the wash solution removed from the plate had measurable radioactivity as detected using a Geiger counter. This step is essential to obtaining a good the signal to noise ratio because the fraction of radioactivity incorporated in the peptides was a tiny fraction of the total in the reaction mixture. The wells were air-dried. A volume of 40-50 μl of microScint-20 (Packard Instruments) was added to each well. The plates were covered with stick-on film sheet. Radioactive emissions were measured in a TopCount NXT Microplate Scintillation and Luminescence Counter (Packard Instruments). Typically samples were counted for 5 minutes (or more) to improve the signal to noise ratio when counts were low.
Many peptides that are good substrates for PKC enzymes were identified using the methods of the invention. For example, Tables 4 and 5 provide a listing of peptides identified as potentially useful kinase substrates. […]

PKC-delta = target: T1, PKC-delta (Homo sapiens, UniProt Q05655); experiment: In vitro kinase assay: peptide phosphorylation by PKC-delta; assay type: biochemical; settings: for PKC delta phosphorylation: normalized to best substrate;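 as to PKC delta phosphorylation: peptide concentration 10 nM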
T1 construct: purchased Calbiochem
T1 sequence (Q05655 whole entry): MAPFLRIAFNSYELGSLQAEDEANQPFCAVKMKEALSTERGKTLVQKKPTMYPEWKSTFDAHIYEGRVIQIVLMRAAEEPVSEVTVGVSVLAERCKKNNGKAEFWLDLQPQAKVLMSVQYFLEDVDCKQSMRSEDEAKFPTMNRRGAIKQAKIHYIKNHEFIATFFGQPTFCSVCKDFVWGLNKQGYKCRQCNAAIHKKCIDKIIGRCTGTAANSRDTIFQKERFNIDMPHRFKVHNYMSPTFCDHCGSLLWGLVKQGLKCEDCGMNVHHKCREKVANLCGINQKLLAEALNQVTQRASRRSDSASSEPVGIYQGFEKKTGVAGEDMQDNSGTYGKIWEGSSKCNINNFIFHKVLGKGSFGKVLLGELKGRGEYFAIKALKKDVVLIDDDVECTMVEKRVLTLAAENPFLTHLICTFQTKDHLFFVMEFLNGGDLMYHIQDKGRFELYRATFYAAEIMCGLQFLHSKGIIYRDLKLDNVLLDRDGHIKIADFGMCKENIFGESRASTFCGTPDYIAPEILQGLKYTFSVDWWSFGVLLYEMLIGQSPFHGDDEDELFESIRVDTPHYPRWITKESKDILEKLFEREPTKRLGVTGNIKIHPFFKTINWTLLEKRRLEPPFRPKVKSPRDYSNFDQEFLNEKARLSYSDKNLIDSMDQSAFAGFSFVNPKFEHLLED
Text: One approach to validating a substrate identification method can involve, for example, comparison of substrate sites predicted by the method with in vitro phosphorylation results obtained using the selected kinase and peptides of known sequences. Such a systematic validation has been performed for the methods described herein. For example, a panel of seventy five peptides was synthesized, the phosphorylation observed for each peptide was experimentally measured, the amount of phosphorylation was quantified, the phosphorylation results for each peptide were normalized to the phosphorylation observed with the best substrate tested and these amounts were compared with predictions made according to the invention and according to the procedures provided by others. These peptides are referred to herein as proteomic peptides because their sequences are chosen from proteins in the human proteome; unlike the test sets employed herein, these peptides include no degenerate positions
Table 2 compares the present predictions with actual measurements of phosphorylation on validating peptides. The method of synthesis of the validating peptides was as described elsewhere in the application, and each included an N-terminal linker sequence of biotinylated-Lys-dansylated-Lys-Pro-Pro-Gly (SEQ ID NO:231). The length of the remaining “core” of the validating peptides ranged from 12-21 residues with one to five S/T residues. In vitro phosphorylation of these validating peptides was measured in the manner described herein. […] In vitro phosphorylation results for the validating peptides were expressed as normalized values, namely as a percentage of phosphorylation of the best validating peptide substrate in the group.
as §1, §2
The peptides were then captured from the reaction mixture by transfer to a Reacti-Bind Streptavidin High Binding Capacity Coated Plates (HBC) (Pierce Biotechnology) as follows. The HBC plates were pre-rinsed three times with PBS/Tween PBS/Tween20 0.05% (PBS/Tween). […]

| Substance | PKC average (PKC) | PKC delta phosphorylation (PKC-delta) | average (phosphorylation by PKC-theta, -delta, -epsilon, -alpha) (PKC) | phosphorylation by PKC-delta (PKC-delta; peptide concentration 1 uM) | phosphorylation by PKC-delta (PKC-delta; peptide concentration 10 uM) |
| --- | --- | --- | --- | --- | --- |
| 76 (HVRRRRGTFKRSKLRARD) [compound 76] | 91% | 100% |  |  |  |
| 77 (KKKKRASFKRKSSKKG) [compound 77] | 80% | 76% |  |  |  |
| 78 (KFARKSTRRSIRLPE) [compound 78] | 63% | 52% |  |  |  |
| 79 (NRKKKRTSFKRKA) [compound 79] | 60% | 66% |  |  |  |
| 80 (KKKKKRFSFKKSFKL) [compound 80] | 56% | 24% |  |  |  |
| 82 (PRLIRRGSKKRPAR) [compound 82] | 56% | 40% |  |  |  |
| 83 (RKIPKRPGSVHRTPSRQ) [compound 83] | 55% | 38% |  |  |  |
| 84 (QKKSRLRRRASQLKI) [compound 84] | 53% | 34% |  |  |  |
| 85 (RFARKGSLRQKNV) [compound 85] | 52% | 34% |  |  |  |
| 86 (RQRKRKLSFRRRTDKD) [compound 86] | 48% | 42% |  |  |  |
| 89 (EYLERRASRRRAV) [compound 89] | 41% | 20% |  |  |  |
| 90 (AQIVKRASLKRGKQ) [compound 90] | 40% | 32% |  |  |  |
| 92 (DGQKRKKSLRKKLD) [compound 92] | 38% | 17% |  |  |  |
| 93 (AARKKRISVKKKQEQ) [compound 93] | 37% | 35% |  |  |  |
| 94 (KLAVGRHSFSRRSGV) [compound 94] | 36% | 12% |  |  |  |
| 95 (KKKFRTPSFLKKSKK) [compound 95] | 33% | 25% |  |  |  |
| 96 (RGFLRSASLGRRASFHLE) [compound 96] | 33% | 18% |  |  |  |
| 99 (AGWRKKTSFRKPKED) [compound 99] | 27% | 17% |  |  |  |
| 100 (WKGKRRSKARKKRK) [compound 100] | 26% | 22% |  |  |  |
| 101 (GAPPRRSSIRNAH) [compound 101] | 23% | 13% |  |  |  |
| 102 (AGSFKRNSIKKIV) [compound 102] | 23% | 14% |  |  |  |
| 103 (LLKKRDSFRTPRDSKLE) [compound 103] | 22% | 12% |  |  |  |
| 104 (EKIKRSSLKKVDSLKK) [compound 104] | 22% | 10% |  |  |  |
| 105 (ALRRPSLRREADD) [compound 105] | 21% | 9% |  |  |  |

| Substance | PKC average (PKC) | PKC delta phosphorylation (PKC-delta) | average (phosphorylation by PKC-theta, -delta, -epsilon, -alpha) (PKC) | phosphorylation by PKC-delta (PKC-delta; peptide concentration 1 uM) | phosphorylation by PKC-delta (PKC-delta; peptide concentration 10 uM) |
| --- | --- | --- | --- | --- | --- |
| 106 (EILSRRPSYRKILND) [compound 106] | 21% | 9% |  |  |  |
| 107 (QKRHARVTVKYDRRE) [compound 107] | 19% | 10% |  |  |  |
| 108 (KATTKKRTLRKNDRK) [compound 108] | 16% | 6% |  |  |  |
| 109 (KEVVRTDSLKGRRGR) [compound 109] | 16% | 7% |  |  |  |
| 110 (EGGDRRASGRRK) [compound 110] | 15% | 5% |  |  |  |
| 111 (KKKRFSFKKSFKLSGFSFKK) [compound 111] | 14% | 16% |  |  |  |
| 112 (KRPGKKGSNKRPGKR) [compound 112] | 12% | 8% |  |  |  |
| 113 (GENVLKKSMKSRVKG) [compound 113] | 10% | 4% |  |  |  |
| 114 (KKKKRASFKRKSSKKG) [compound 114] |  |  | 95 | 80 | 100 |
| 115 (NRKKKRTSFKRKA) [compound 115] |  |  | 80 | 94 | 99 |
| 116 (EEGTFRSSIRRLSTRRR) [compound 116] |  |  | 71 | 75 | 41 |
| 117 (NRKKKRTSFKRKA) [compound 117] |  |  | 70 | 100 | 79 |
| 118 (RPQNTLKASKKKKRASFKRK) [compound 118] |  |  | 64 | 73 | 60 |
| 119 (KKRFSFKKSFKLSGFSFKKN) [compound 119] |  |  | 61 | 42 | 16 |
| 120 (AKRRRLSSLRASTSK) [compound 120] |  |  | 52 | 64 | 32 |
| 121 (LRRRSLRRSNSISKSPGP) [compound 121] |  |  | 50 | 80 | 53 |
| 122 (RAITSTLASSFKRRR) [compound 122] |  |  | 49 | 55 | 24 |
| 123 (KKRFSFKKSFKLSGFSFKKN) [compound 123] |  |  | 49 | 45 | 22 |
| 124 (PRLIRRGSKKRPAR) [compound 124] |  |  | 49 | 69 | 43 |
| 125 (PLKEKKRERKTSSKSSVRKR) [compound 125] |  |  | 48 | 46 | 36 |
| 126 (KAIKAIEGGQKFARKSTRRS) [compound 126] |  |  | 46 | 47 | 43 |
| 127 (SQVQKQRSAGSFKRNSIKKI) [compound 127] |  |  | 43 | 52 | 33 |
| 128 (QQVDRERPHVRRRRGTFKRS) [compound 128] |  |  | 42 | 46 | 57 |
